Drawing on patent US20240083959A1, this text covers Kd for one molecule.

In this experiment the target is T1, recombinant human LPHN2 lectin-olfactomedin-like-GAIN/GPS domain, residues F26-R796 (human), O95490.
T1 chain: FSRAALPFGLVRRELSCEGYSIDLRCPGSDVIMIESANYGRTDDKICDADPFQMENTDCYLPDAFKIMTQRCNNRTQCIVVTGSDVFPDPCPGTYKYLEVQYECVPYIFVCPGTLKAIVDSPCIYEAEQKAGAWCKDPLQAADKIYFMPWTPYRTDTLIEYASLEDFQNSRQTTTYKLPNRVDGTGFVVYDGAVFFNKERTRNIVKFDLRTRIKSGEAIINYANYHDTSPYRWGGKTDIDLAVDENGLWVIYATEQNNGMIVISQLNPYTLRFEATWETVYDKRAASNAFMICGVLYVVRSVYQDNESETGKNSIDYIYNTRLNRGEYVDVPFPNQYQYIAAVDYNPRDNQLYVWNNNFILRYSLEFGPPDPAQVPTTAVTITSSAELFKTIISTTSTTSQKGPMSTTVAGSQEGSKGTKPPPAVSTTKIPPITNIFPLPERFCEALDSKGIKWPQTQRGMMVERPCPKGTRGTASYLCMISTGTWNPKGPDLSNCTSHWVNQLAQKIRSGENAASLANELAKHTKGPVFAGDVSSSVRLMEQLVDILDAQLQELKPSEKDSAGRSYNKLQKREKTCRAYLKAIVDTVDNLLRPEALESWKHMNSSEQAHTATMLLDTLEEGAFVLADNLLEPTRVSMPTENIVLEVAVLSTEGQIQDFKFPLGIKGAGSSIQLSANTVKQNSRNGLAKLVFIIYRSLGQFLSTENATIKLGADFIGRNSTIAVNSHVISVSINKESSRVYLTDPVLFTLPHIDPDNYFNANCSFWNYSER
Kind of experiment: solid-phase binding (ELISA). Particulars: ligand; chains chain; N-linked glycans removed with PNGase F (sites N79, N186, N269, N325 on SEQ ID NO: 1); remark: other sources report otherwise. For orientation: In an ELISA, binding on a coated surface is turned into a signal by an enzyme label.

B1: deglycosylated LRG1 (LRG1 treated with PNGase F), P02750 36-347 (protein)
chain: VTLSPKDCQVFRSDHGSSISCQPPAEIPGYLPADTVHLAVEFFNLTHLPANLLQGASKLQELHLSSNGLESLSPEFLRPVPQLRVLDLTRNALTGLPPGLFQASATLDTLVLKENQLEVLEVSWLHGLKALGHLDLSGNRLRKLPPGLLANFTLLRTLDLGENQLETLPPDLLRGPLQLERLHLEGNKLQVLGKDLLLPQPDLRYLFLNGNKLARVAAGAFQGLRQLDMLDLSNNSLASVPEGLWASLGQPNWDMRDGFDISGNPWICDQNLSDLYRWLQAQKDKMFSQNDTRCAGPEAVKGQTLLAVAKSQ
As a reminder, the Kd is the free concentration of one partner at which half of the binding sites on the other are occupied at equilibrium, for simple one-to-one binding. B1: the Kd is 840 nM.
